The source of these data is US20180112008A1 (Memorial Sloan Kettering, published 2018).

The target in assay [1] is T1, biotinylated chitobiose-conjugated 18-mer glycopeptide (human, also: biotinylated, site not given here).
T1 construct: Cys plus T22-V38 of MUC16^c114; The range is derived from T22-V38 and the statement that c114 is 1777-1890; the N-terminal Cys is added; also called (GlcNAc2)2-18-mer, biotinylated; 18-mer(chitobiose)2[C-T22-V38]
T1 peptide: Ac-CTRN(GlcNAc2)GTQLQN(GlcNAc2)FTLDRSSV-NH2
The assay can be described thus: binding affinity table of Example 3; target not named there, taken as in Table 9 (Octet BLI, biotinylated chitobiose 18-mer). The procedure, abridged: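 Binding was measured by biolayer interferometry on a ForteBio Octet QK, with 5 μg/mL biotinylated chitobiose-conjugated 18-mer glycopeptide loaded onto streptavidin biosensors. Excess antigen was washed off, and mouse antibodies were run at 10 μg/mL for association and dissociation steps. Kd, kon and koff came from a 1:1 binding site model with partial fit.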
For orientation: In BLI a coated tip is dipped into the sample, and binding shifts an interference pattern.

Assay [2] concerns the target T2, MUC16 18mer + GlcNAc2-Trimannose (also: N-linked Man3GlcNAc2, Asn site not given here).
T2 construct: also called 18-mer with Man3GlcNAc2
T2 peptide: CTRNGTQLQNFTLDRSSV
The assay can be described thus: sandwich ELISA on 'MUC16 18mer + GlcNAc2-Trimannose'; Blank 0.035. (In general: An ELISA detects its analyte on a solid surface through an enzyme-linked reagent.)

The target of a further assay is T3, MUC16^c114-N3 (human, chain 1 pos 1 and pos 24: N-glycosylated Asn (cell-made glycans), written N).
T3 construct: MUC16^c114 with Asn30 (Asn1806) changed to Ala, on SKOV3 cells; also called N30 mut c114; SKOV3-N30 mutc114; not shown: hrGFP of the phrGFP II-C vector, fused at the cytoplasmic carboxy-terminus
T3 chain: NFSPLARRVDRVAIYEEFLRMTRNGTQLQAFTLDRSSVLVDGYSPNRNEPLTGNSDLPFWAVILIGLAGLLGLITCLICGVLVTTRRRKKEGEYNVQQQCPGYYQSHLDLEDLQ
As to the kind of experiment: FACS, SKOV3-N30 mutc114. On the technique in general: Flow cytometry measures light scatter and fluorescence of single cells or particles in a stream.

Assay [3] addresses T4, MUC16 18mer (not fully specified).
T4 construct: also called non-glycosylated 18-mer MUC16 peptide
T4 peptide: CTRNGTQLQNFTLDRSSV
The assay can be described thus: ELISA 12/24/13 (sups from time of freezing), dilution 400, column 18.

A further assay deals with T5, MUC16^c114-N1 (human, chain 1 pos 24 and pos 30: N-glycosylated Asn (cell-made glycans), written N).
T5 construct: MUC16^c114 with Asn1 (Asn1777) changed to Ala, on SKOV3 cells; also called N1 mut c114; SKOV3 MUC16^c114-N1; not shown: hrGFP of the phrGFP II-C vector, fused at the cytoplasmic carboxy-terminus
T5 chain: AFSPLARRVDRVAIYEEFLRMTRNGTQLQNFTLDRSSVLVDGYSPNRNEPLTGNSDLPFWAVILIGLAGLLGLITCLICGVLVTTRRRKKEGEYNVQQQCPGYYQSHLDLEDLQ
As to the kind of experiment: FACS, SKOV3 transfectant, goat anti-mouse IgG-PE.

The next assay deals with T6, MUC16^c114 (human, capable of N-glycosylation at Asn1, Asn24 and Asn30 ; chain 1 pos 1, 24, 30: Asn capable of N-glycosylation on the transfected cells, written N).
T6 construct: The forward primer adds Met-Val before Asn1; also called MUC16^c114-GFP; SKOV3 MUC16^c114; not shown: hrGFP of the phrGFP II-C vector fused at the cytoplasmic carboxy-terminus, with its short cloning linker
T6 chain: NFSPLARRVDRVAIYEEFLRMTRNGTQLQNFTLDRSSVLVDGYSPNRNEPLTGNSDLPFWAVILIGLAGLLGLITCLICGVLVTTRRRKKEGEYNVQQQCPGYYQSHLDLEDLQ
The assay can be described thus: FACS, SKOV3 transfectant, goat anti-mouse IgG-PE.

Assay [4] has as its target T7, non-glycosylated 15-mer MUC16 peptide (human).
T7 construct: Same peptide as the GlcNAc2-15-mer without the glycan; also called unglycosylated 15-mer
T7 peptide: CGTQLQNFTLDRSSV
The assay can be described thus: sandwich ELISA on 'MUC16 15mer'; Blank 0.021.

The target in the next assay is T8, MUC16 18mer + GlcNAc1 (also: N-linked single GlcNAc, Asn (N4, N10 or both) not given here).
T8 construct: also called 18-mer with a single GlcNAc
T8 peptide: CTRNGTQLQNFTLDRSSV
The assay can be described thus: sandwich ELISA on 'MUC16 18mer + GlcNAc1'; Blank 0.042.

Assay [5] concerns the target T4, MUC16 18mer. As to the kind of experiment: sandwich ELISA on 'MUC16 18mer'; Blank 0.032.
Assay [6] concerns the target T9, MUC16 nonglycosylated peptide 2 (human).
T9 construct: Peptide used to elicit the 4H11 antibody; also called nonglycosylated MUC16 peptide 2
T9 peptide: CTLDRSSVLVDGYSPNRNE
As to the kind of experiment: sandwich ELISA on 'MUC16 Nonglycosylated Peptide2'; Blank 0.029.

Ends that are not written are not given here. * marks the point of attachment. GlcNAc2 = N-linked chitobiose, CC(=O)N[C@@H]1[C@@H](O)[C@H](O[C@@H]2O[C@H](CO)[C@@H](O)[C@H](O)[C@H]2NC(C)=O)[C@@H](CO)O[C@H]1*

B1: 18C6.D12 (antibody, V domains shown)
VH: QVTLKESGPGILQPSQTLSLTCSFSGFSLSTVGMGVGWSRQPSGKGLEWLAHIWWDDEDKYYNPALKSRLTISKDTSKNQVFLKIANVDTADTATYYCTRIGTAQATDALDYWGQGTSVTVSS
VL: DIVMTQAAPSVPVTPGESVSISCRSSKSLLHSNGNTYLYWFLQRPGQSPQRLIYYMSNLASGVPDRFSGRGSGTDFTLRISRVEAEDVGVYYCMQSLEYPLTFGGGTKLEIK
notes: Mouse monoclonal from a hybridoma; also called MUC16 Glycosylation Antibody 18C6
Consider B1, for which the equilibrium dissociation constant (Kd) (usually the concentration at which binding is half-saturated) in assay [1] came out at 11.1 nM. Moreover, in assay [1], the koff – broadly, the rate constant with which the complex falls apart – came to 0.000678 s⁻¹. Moreover, the ELISA signal in assay [2] amounted to 0.89; with MUC16 18mer [3], 0.45; in [4] it was 1.06; in the assay with MUC16 18mer + GlcNAc1 it was 0.95; in the assay with MUC16 18mer [5], 1.01; in assay [6], 0.02. This molecule also showed a geometric mean phycoerythrin (PE) fluorescence with MUC16^c114-N3 of 1700. Also, the “Mean % PE” value with MUC16^c114-N1 was 83%; with MUC16^c114 it was 73.1%.

B2: 19C11.H6 (antibody, V domains shown)
VH: QVNLKESGPGKLQPSQTLSLTCSFSGFSLSTLGMGVGWIRQSSGKGLEWLAHIWWDDDKYYNPALKSRLTISRATSKNQVFLKIVNVGTADTATYYCARIGTAQATDALDYWGQGTSVTVSS
VL: DIVMTQAAPSIPVTPGESVSISCRSSKSLLHSNGNTYLYWFLQRPGQSPQRLIYYMSNLASGVPDRFSGRGSGTDFTLKISRVEAGDVGVYYCMQGLEHPLTFGGGTKLEIK
notes: Mouse monoclonal from a hybridoma; Used as 89Zr-DFO-labelled antibody in the internalization assay; also called MUC16 Glycosylation Antibody 19C11
For the molecule B2, the Kd in assay [1] amounted to 63.7 nM. This molecule also gave a koff in [1] of 0.00242 s⁻¹. For the same molecule, the kon – broadly, a measure of how fast the partners come together – in assay [1] was 38000 M⁻¹ s⁻¹. The ELISA signal came out at 0.99 in assay [2]; 0.2 with MUC16 18mer [3]; 1.17 in assay [4]; 0.96 with MUC16 18mer + GlcNAc1; 0.98 with MUC16 18mer [5]; 0.03 in assay [6]. Moreover, the geometric mean phycoerythrin (PE) fluorescence with MUC16^c114-N3 was determined as 536. In addition, the “Mean % PE” value in the assay with MUC16^c114-N1 came to 81.7%; with MUC16^c114, 69.3%.

B3: 7B12.B3 (antibody, V domains shown)
VH: QVTLKESGPGILQPSQTLSLTCSFSGFSLSTVGMGVGWSRQPSGKGLEWLAHIWWDDEDKYYNPALKSRLTISKDTSKNQVFLKIANVDTADSATYYCTRIGTAQATDALDYWGQGTSVTVSS
VL: DIVMTQAAPSVSVTPGESVSISCRSSKSLRKSNGNTYLYWFLQRPGQSPQRLIYYMSNLASGVPDRFSGRGSGTDFTLRISRVEAEDVGVYYCMQSLEYPLTFGGGTKLKIK
notes: Mouse monoclonal from a hybridoma; also called MUC16 Glycosylation Antibody 7B12
In turn, B3 displayed a Kd in assay [1] of 13.8 nM. In [1], the koff stood at 0.00104 s⁻¹. Besides, the ELISA signal was determined as 1.05 in assay [2]; 0.33 with MUC16 18mer [3]; 1.21 in assay [4]; 1.03 in the assay with MUC16 18mer + GlcNAc1; 1.09 in the assay with MUC16 18mer [5]; 0.02 in [6].
